From publication doi:10.1101/2021.11.05.467508v1

B1: OsSRT1_cc (CC) (Oryza sativa Indica Group) (protein)
chain: KHLVVFTGAGISTSSGIPDFRGPKGVWTLQRSGKGVPGASLPFHRAVPTLTHMALVELEKTGRLKFVISQNVDSLHLRSGLPREKLAELHGNSFKEICPSCKKEYLRDFEIETIGLKDTPRRCSDKNCGARLKDTVLDWEDALPPEEMDAAKEQCQTADLVLCLGTSLQITPACNMPLLSLKNGGRVAIVNLQATPKDKKASLVIHGLVDK
B2: ΔC1 (Oryza sativa Indica Group) (protein)
chain: MSLGYAEKLSYREDVGNVGMPEIFDSPELLHKKIEELAVMVRESKHLVVFTGAGISTSSGIPDFRGPKGVWTLQRSGKGVPGASLPFHRAVPTLTHMALVELEKTGRLKFVISQNVDSLHLRSGLPREKLAELHGNSFKEICPSCKKEYLRDFEIETIGLKDTPRRCSDKNCGARLKDTVLDWEDALPPEEMDAAKEQCQTADLVLCLGTSLQITPACNMPLLSLKNGGRVAIVNLQATPKDKKASLVIHGLVDK
B3: ΔN1 (Oryza sativa Indica Group) (protein)
chain: KHLVVFTGAGISTSSGIPDFRGPKGVWTLQRSGKGVPGASLPFHRAVPTLTHMALVELEKTGRLKFVISQNVDSLHLRSGLPREKLAELHGNSFKEICPSCKKEYLRDFEIETIGLKDTPRRCSDKNCGARLKDTVLDWEDALPPEEMDAAKEQCQTADLVLCLGTSLQITPACNMPLLSLKNGGRVAIVNLQATPKDKKASLVIHGLVDKVIAGVMYMMNLRIPPYIRTDFVQISLRNSVKKKCVRWTLRVTSIHGLRAPLPFLRSVEVSFPERPDMKPVVLKEQPFSLQRETSMNRPFVMLLTFNFSDGCGCSSSSIEWPVDFLKQKDSFVRDRSLVLQELQHAAEHRSRAGQHAILEREGVPRAETSIHALVTNIVRYDTEDSKAAVPMATWMNSNGSLSKRHMDAIGCNPASSKKQKLVATRHRRKGLNPATQKV

Substrate: NC(=O)c1ccc[n+]([C@@H]2O[C@H](COP(=O)(O)OP(=O)(O)OC[C@H]3O[C@@H](n4cnc5c(N)ncnc54)[C@H](O)[C@@H]3O)[C@@H](O)[C@H]2O)c1
Test: dot blot saturation kinetics, Michaelis-Menten fit
Assay type: biochemical, Oryza sativa
Details: H3K9Ac of histone H3 (constant), 0-600 μM NAD+, pH 7.5, 37 °C

Point of comparison: B1, Km 256 ± 21 µM. Against it:
- B2 — within error, 299 ± 43 µM
- B3 — within 1.5-fold, 175 ± 27 µM

Point of comparison: B3, kcat 0.0617 ± 0.00367 s⁻¹. Against it:
- B1 — 1.8-fold lower, 0.03432 ± 0.00127 s⁻¹
- B2 — 3.1-fold lower, 0.02 ± 0.0014 s⁻¹
